Source: US20240262910A1 (Memorial Sloan Kettering, published 2024)

T1: mouse CD33 extracellular domain with 6xHis-tag (mouse, UniProt Q63994 18-240)
T1 construct: range 18-240; also called moCD33-His; moCD33(ECD)-His
T1 sequence: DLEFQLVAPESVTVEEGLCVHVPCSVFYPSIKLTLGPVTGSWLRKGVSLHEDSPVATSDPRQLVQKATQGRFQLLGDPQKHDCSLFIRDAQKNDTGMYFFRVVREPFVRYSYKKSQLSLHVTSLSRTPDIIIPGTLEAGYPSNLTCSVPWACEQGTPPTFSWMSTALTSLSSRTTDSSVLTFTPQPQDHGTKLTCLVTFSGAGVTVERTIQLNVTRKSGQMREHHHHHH


What was measured:
[1] = target: T1, mouse CD33 extracellular domain with …; assay: ELISA: CD33-His protein at 5 µg/mL captured on Ni-NTA plate, antibody at 10 µg/mL in triplicate, HRP anti-human Fc detection, OD450
Experimental: Binding to Recombinant CD33 Protein. Binding to CD33 protein was carried out by ELISA using human CD33-His (full-length or IgC2 domain), cynomolgus monkey CD33-His and mouse CD33-His. Recombinant proteins at 5 μg/mL were captured by pre-blocked Ni-NTA plates. Candidate antibodies were added at 10 μg/mL in triplicate and detected using horseradish peroxidase (HRP)-conjugated anti-human Fc antibody. […] No binding was detected to cynomolgus or mouse CD33 for either TDI-Y-006 and TDI-Y-007. 1J19 and H195 only bound to full-length human CD33 ECD but not to IgC2 as these antibodies target the IgV domain.

[2] = target: T2, human CD33, full length, on cells (human, UniProt P20138 18-364); assay: summary table; flow cytometry, 3T3 cells overexpressing CD33; 3T3 cells overexpressing CD33
T2 construct: NIH-3T3 cells stably overexpressing full-length human CD33, or AML lines U937 and Set2 with endogenous CD33; the cell line is named under assay; also called 3T3-huCD33; 3T3-CD33
Experimental: (§1) Binding to CD33 on Cells. To assess the binding of TDI-Y-006, TDI-Y-007 and 1J19 to cell surface-bound CD33, 3T3 cells overexpressing CD33, as well as the U937 AML cell line, which expresses endogenous CD33, were used. U937 CD33KO or NALM6 were included as negative controls. Briefly, NALM6, U937 CD33+ and KO cells were blocked with human IgG Fc for 20 minutes on ice. The recombinant antibodies were then serially diluted starting at 100 μg/mL concentration and added for 30 minutes on ice. AlexaFluor 647-conjugated goat anti-human F(ab′)2 was added to cells for 30 minutes on ice, washed and analyzed by flow cytometry, normalized to secondary only staining (MFI ratio). EC50 values were determined by non-linear regression.

[3] = target: T3, human CD33 extracellular domain with 6xHis-tag (human, UniProt P20138 18-259); assay: BLI (Octet Red96e), antibody on anti-huFc sensor, huCD33-His as analyte, 1:1 fit
T3 construct: Bought (R&D Systems, Acro Biosystems); also called huCD33-His; huCD33(ECD)-His
Experimental: (§2) The binding affinity to human CD33 protein was measured by biolayer interferometry (BLI) using an Octet Red96e. All experiments were carried out using kinetic buffer (PBS pH 7.4, 0.01% BSA, 0.002% Tween-20). The antibodies were captured by an anti-huFc biosensor and a 7-point, 2-fold dilution series of huCD33-His was used as analyte. The data was processed by double reference subtraction, and response curves were globally fit to a 1:1 Langmuir binding model. […] The binding affinities are similar to the H195 reference antibody.

[4] = target: T2, human CD33, full length, on cells; assay: flow cytometry on 3T3 cells overexpressing human CD33, antibody titration, AlexaFluor 647 goat anti-human F(ab')2 detection, MFI ratio to secondary only
Experimental: as §1

[5] = target: T2, human CD33, full length, on cells; assay: flow cytometry, U937 cells
Experimental: as §1

[6] = target: T2, human CD33, full length, on cells; assay: summary table; flow cytometry, AML cell line U937; U937 AML cell line (endogenous CD33)
Experimental: as §1

[7] = target: T3, human CD33 extracellular domain with …; assay: BLI, huCD33-His on anti-penta-His sensor, no competitor
Experimental: Epitope Binning. Epitope binning was carried out by a BLI competition experiment using an Octet Red96e. Human CD33-His was captured by an anti-penta-His biosensor. A 4×4 matrix with TDI-Y-006, TDI-Y-007, 1J19 and H195 was tested. A reference biosensor was used to determine the overall capture level for each antibody. After pre-binding the antibodies at saturation levels, the biosensors were dipped into antibody solutions to assess competition. […] However, when TDI-Y-006 was pre-bound, binding of TDI-Y-007 was blocked. […] Similarly, 1J19 and H195 have epitopes that partially overlap. No competition was observed between antibodies binding to the membrane-proximal IgC2 domain (TDI-Y-006 and TDI-Y-007) and antibodies binding to the membrane-distal IgV domain (1J19 and H195).

[8] = target: T2, human CD33, full length, on cells; assay: flow cytometry, 3T3-CD33 cells
Experimental: as §1

[9] = target: T4, human CD33 IgC2 type domain with 6xHis-tag (human, UniProt P20138 140-259); assay: ELISA, hybridoma supernatant
T4 construct: Produced at LakePharma; also called huCD33IgC2-His; CD33 IgC2-6xHis

[10] = target: T3, human CD33 extracellular domain with …; assay: ELISA, hybridoma supernatant
[11] = target: T2, human CD33, full length, on cells; assay: flow cytometry, purified mAb, U937 cells
[12] = target: T2, human CD33, full length, on cells; assay: flow cytometry, hybridoma supernatant, 3T3-huCD33 cells
[13] = target: T1, mouse CD33 extracellular domain with …; assay: ELISA on recombinant moCD33-His, purified hybridoma subclone antibody, readout RLU; antibody concentration not given
[14] = target: T5, human CD33 IgC2 domain only, on NIH-3T3 cells (human, UniProt P20138 140-364); assay: flow cytometry, hybridoma supernatant, 3T3-huCD33IgC2 cells
T5 construct: the whole entry is named here; also called 3T3-huCD33IgC2; 3T3 CD33-IgC2

[15] = target: T2, human CD33, full length, on cells; assay: flow cytometry, hybridoma supernatant, U937 cells
[16] = target: T2, human CD33, full length, on cells; assay: flow cytometry, purified mAb, Set2 cells
[17] = target: T2, human CD33, full length, on cells; assay: summary table; flow cytometry, 3T3 cells overexpressing CD33
Experimental: as §1

[18] = target: T3, human CD33 extracellular domain with …; assay: summary table; binding affinity to soluble CD33 (BLI)
Experimental: as §2

T2 sequence (P20138 18-364): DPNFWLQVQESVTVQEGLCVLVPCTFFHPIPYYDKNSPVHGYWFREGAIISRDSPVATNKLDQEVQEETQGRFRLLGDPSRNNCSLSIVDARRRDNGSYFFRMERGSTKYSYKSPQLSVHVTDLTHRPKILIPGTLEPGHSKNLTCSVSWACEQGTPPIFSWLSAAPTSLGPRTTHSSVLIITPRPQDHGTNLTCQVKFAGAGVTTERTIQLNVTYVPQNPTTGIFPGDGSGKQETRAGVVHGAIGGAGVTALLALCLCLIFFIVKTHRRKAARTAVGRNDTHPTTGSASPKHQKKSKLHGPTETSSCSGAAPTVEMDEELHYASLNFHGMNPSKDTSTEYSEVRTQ
T3 sequence (P20138 other isoform, or with tags, fused parts or gaps): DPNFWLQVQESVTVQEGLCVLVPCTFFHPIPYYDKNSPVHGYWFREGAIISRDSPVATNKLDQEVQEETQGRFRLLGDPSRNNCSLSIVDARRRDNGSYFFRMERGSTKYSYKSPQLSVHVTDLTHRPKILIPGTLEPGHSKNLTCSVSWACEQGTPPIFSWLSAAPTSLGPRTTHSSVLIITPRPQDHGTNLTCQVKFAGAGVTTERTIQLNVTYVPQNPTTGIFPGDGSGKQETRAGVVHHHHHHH
T4 sequence (P20138 other isoform, or with tags, fused parts or gaps): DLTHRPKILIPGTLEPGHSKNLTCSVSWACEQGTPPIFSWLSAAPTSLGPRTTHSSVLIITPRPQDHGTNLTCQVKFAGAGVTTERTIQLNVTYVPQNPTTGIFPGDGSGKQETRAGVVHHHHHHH
T5 sequence (P20138 140-364 limits assumed): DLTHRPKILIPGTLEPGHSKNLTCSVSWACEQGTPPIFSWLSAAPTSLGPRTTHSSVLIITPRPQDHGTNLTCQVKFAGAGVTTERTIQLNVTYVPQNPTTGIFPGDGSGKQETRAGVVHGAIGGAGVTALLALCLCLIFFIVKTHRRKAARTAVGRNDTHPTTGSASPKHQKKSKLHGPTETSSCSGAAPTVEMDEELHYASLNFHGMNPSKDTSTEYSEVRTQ

binding result [1]	Kd [3]	kon [3]	EC50 (read off the curve) [4]	EC50 [5]	EC50 [6]	BLI total binding capacity (Reference Biosensor) [7]	EC50 [8]	RLU [9]	RLU [10]	EC50 [11]	MFI [12]	MFI [14]	MFI [15]	EC50 [16]	Binder	further results
no binding (tested: 10 µg/mL)	1.29 nM	464000 M⁻¹ s⁻¹	~40 nM	44.9 nM	45 nM	0.299	17 nM	–	–	–	–	–	–	–	TDI-Y-007 (antibody, V domains shown, also called 4B2 (recombinant, human IgG1 constant region)) VH: EVHLLESGGGLVQPGGSLRLSCAASGFIFSSNAMSWVRQAPGKGLEWVSAISGYGGNTYYADSVKGRFTISRDNSKNTLYLQMNSLRAEDTAVYYCAKWGTYIVGATGDYWGQGTLVTVSS VL: QSALTQPPSASGSPGQSVTISCTGTSNDVGGYNYVSWYQQHPGKAPKLLIYEVSKRPSGVPDRFSGSQSGNTASLTVSGLQAEDEADYYCSSYAGSNNWVFGGGTKLTVL	EC50 [2]: 17 nM; koff [3]: 0.000597 s⁻¹
no binding (tested: 10 µg/mL)	1.21 nM	296000 M⁻¹ s⁻¹	~8 nM	8.5 nM	8.5 nM	0.86	5 nM	–	–	–	–	–	–	–	TDI-Y-006 (antibody, V domains shown, also called 3P14 (recombinant, human IgG1 constant region)) VH: EVQLLESGGGLVQPGGSLRLSCAASGFTFSTYAMSWVRQAPGKGLEWVSAISGRGGSTYYTDSVKGRFTISRDNSKNTVSLQMNSLRAEDTAVYYCAGRGDYYYYYGMDVWGQGTTVTVSA VL: DIVMTQSPLSSPVTLGQPASFSCRSSQSLVYSDGNTYLSWLQQRPGQPPRLLIYKISNRFSGVPDRFSGSGAGTDFTLKISRVEAEDVGVYYCMQSTQFPHTFGQGTKLEIK	EC50 [17]: 5 nM; Kd [18]: 1.2 nM; koff [18]: 0.000359 s⁻¹; kon [18]: 296000 M⁻¹ s⁻¹

Further lines, the binder ahead of its results:

Binder	binding result [1]	Kd [3]	kon [3]	EC50 (read off the curve) [4]	EC50 [5]	EC50 [6]	BLI total binding capacity (Reference Biosensor) [7]	EC50 [8]	RLU [9]	RLU [10]	EC50 [11]	MFI [12]	MFI [14]	MFI [15]	EC50 [16]	further results
4-B2 (hybridoma antibody) (antibody, V domains shown, AlivaMab mouse hybridoma antibody; also called 4-B2-A) VH: EVHLLESGGGLVQPGGSLRLSCAASGFIFSSNAMSWVRQAPGKGLEWVSAISGYGGNTYYADSVKGRFTISRDNSKNTLYLQMNSLRAEDTAVYYCAKWGTYIVGATGDYWGQGTLVTVSS VL: QSALTQPPSASGSPGQSVTISCTGTSNDVGGYNYVSWYQQHPGKAPKLLIYEVSKRPSGVPDRFSGSQSGNTASLTVSGLQAEDEADYYCSSYAGSNNWVFGGGTKLTVL	–	–	–	–	–	–	–	–	101000 RLU	392000 RLU	40.5 nM	2.82e+06 MFI	358000 MFI	152000 MFI	28.5 nM	binding result [13]: no binding
3-P14 (hybridoma antibody) (antibody, V domains shown, AlivaMab mouse hybridoma antibody; also called 3-P14-A) VH: EVQLLESGGGLVQPGGSLRLSCAASGFTFSTYAMSWVRQAPGKGLEWVSAISGRGGSTYYTDSVKGRFTISRDNSKNTVSLQMNSLRAEDTAVYYCAGRGDYYYYYGMDVWGQGTTVTVSA VL: DIVMTQSPLSSPVTLGQPASFSCRSSQSLVYSDGNTYLSWLQQRPGQPPRLLIYKISNRFSGVPDRFSGSGAGTDFTLKISRVEAEDVGVYYCMQSTQFPHTFGQGTKLEIK	–	–	–	–	–	–	–	–	107000 RLU	546000 RLU	3.27 nM	3.06e+06 MFI	544000 MFI	248000 MFI	2.4 nM	–
